Target: Insulin-like Growth Factor Receptor (IGFR; Type I IGF receptor) (UniProt P08069)
Experiment: displacement of 125I-IGF-1 from IGFR

Lantus (insulin analogue with two additional Arg residues at the carboxy-terminal end of the B-chain) (ligand)
Kd: 3.14 nM
Relative Affinity (to IGF-1): 0.015 fold
fold affinity relative to human insulin: 2 to 3 fold
